# No end group written: not given here.
# T1: FAM-tat peptide (UniProt P04608, also: FAM label, position not given here)
# T1 chain: AAARKKRRQRRRAAA
# Molecular target: T1, FAM-tat peptide
# Assay: SPR
binder,measurement,value
GGCAGAUCUGAGCCUGGGAGCUCUCUGCC (structured_RNA) [biotin-TAR RNA],Kd,380 nM

# Reference: publication PMC9262588
